Test results as given in article PMC10164398.

Target: fluorescein-labeled NS1 (89–237) (H3N2) (influenza A virus H3N2)
Experiment: […]

Chain of fluorescein-labeled NS1 (89–237) (H3N2) (influenza A virus H3N2) (P03495 89-237 limits assumed): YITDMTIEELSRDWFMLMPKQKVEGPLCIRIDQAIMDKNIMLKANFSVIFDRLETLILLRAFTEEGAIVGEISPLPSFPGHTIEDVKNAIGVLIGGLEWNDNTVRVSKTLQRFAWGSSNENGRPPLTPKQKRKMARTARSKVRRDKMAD
Chain of human eIF4E (P06730 whole entry): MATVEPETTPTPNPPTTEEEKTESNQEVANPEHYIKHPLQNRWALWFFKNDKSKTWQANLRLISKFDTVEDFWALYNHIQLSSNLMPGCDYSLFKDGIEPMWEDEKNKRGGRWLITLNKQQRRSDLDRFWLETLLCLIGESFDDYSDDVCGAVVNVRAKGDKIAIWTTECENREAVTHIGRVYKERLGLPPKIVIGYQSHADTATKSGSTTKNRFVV

| Substance | Kd |
| --- | --- |
| eIF4G1 (88–653) (from UniProt Q04637 88-653) (domain or fragment) | 264 nM |
| human eIF4E (from UniProt P06730 1-217) (natural protein) | 177 nM |
